Test results taken from the RNAGym collection of RNA variant scans (doi:10.1073/pnas.2313332121).

B1: TPR t1 (parent)
chain: GACCAAUCUGCCCUCAGAGCUCGAGAACAUCUUCGGAUGCAGAGGAGGCAGGCUUCGGUGGCGCGAUAGCGCCAACGUCCUCAACCUCCAAUGCAUCCCACCACAUGAUGAUGCCUGAAGAGCCUUGGUUUUUUG

Variants of: B1
Assay: polymerase ribozyme fitness, log enrichment relative to wild type (log ratio); higher = more active; in vitro selection for triplet polymerase activity
In short: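 Fitness measures genotype enrichment against wild-type enrichment on a logarithmic scale, with inverse-variance-weighted averaging of replicates. The logarithm is base 2, and genotypes were kept only with ≥10 input reads and ≥1 read per output in Illumina sequencing. The sequenced libraries came from one triplicate in vitro selection round, including frozen incubation at −7 °C, of PCR-built, transcribed mutant libraries of each subunit of a heterodimeric triplet polymerase ribozyme.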

| Variant | polymerase ribozyme fitness (log ratio) |
| --- | --- |
| G61C A91U | -4.64 |
| G61A G93C A95C | -1.24 |
| G61C C72U | 0.273 |
| G61C G110C | -5.94 |
| G61C G110A | -3.32 |
| G61A G110U | -0.817 |
| G61A G110C | -3.29 |
| G61A G120U G135U | -0.818 |
| G61C C82A G110A G127A | -3.64 |
| G61C G71A | -4.05 |
| G61C G71U | -3.13 |
| G61A C88G G110A | -1.26 |
| G61C C94U C115U A121G | -4.32 |
| G61A U92C C114A | -2.51 |
| G61A C97G G110A | -5.81 |
| G61A C88G G120A A121C | -1.75 |
| G61A U125G | -0.638 |
| G61A G63U | -3.75 |
| G61A U130G | -0.92 |
| G61A U130A | 0.0628 |
| G61C C62G G63C U112A | -4.63 |
| G61C C79U | -1.46 |
| G61C C80A G107U C114U G127C | -5.81 |
| G61A U87A | 0.597 |

| Variant | polymerase ribozyme fitness (log ratio) |
| --- | --- |
| G61A U129G | -1.24 |
| G61A U129A | -1.11 |
| G61A C79U C115A G120A | -0.74 |
| G61C G69U | -1.37 |
| G61C G107U | -7.35 |
| G61A C88U G113A G128U | -2.99 |
| G61A C80U | -1.03 |
| G61A C115U | -0.993 |
| G61A C115A | 0.519 |
| G61A C123U | 1.29 |
| G61A C123A | 0.936 |
| G61A C88A | -0.575 |
| G61A C89U | -0.458 |
| G61U A74G G93U G117U | -5.63 |
| G61A G93A | -0.586 |
| G61A G93C | -0.381 |
| G61C G77A | -4.61 |
| G61C G77U | -1.86 |
| G61C C64A C94G G113C C124A | -6.83 |
| G61C C80U G120U | -7.22 |
| G61A G71A | -2.39 |
| G61A C101A | -0.787 |
| G61A C101G | -1.59 |
| G61A G110A C114G | -6.32 |

| Variant | polymerase ribozyme fitness (log ratio) |
| --- | --- |
| G61A C79U | -0.164 |
| G61A C79G | -0.521 |
| G61C U131A | -2.31 |
| G61C C94A U131G | -2.91 |
| G61A U131G | -0.0143 |
| G61A U131C | -0.691 |
| G61A C88A G120C A121U | 0.393 |
| G61C C79G C86U | -1.95 |
| G61C U96A | -2.71 |
| G61A G128A | -1.69 |
| G61C A90C U126A | -4.32 |
| G61A C86A | -0.514 |
| G61U A66C U92A | -4.97 |
| G61U A66C U92C | -2.21 |
| G61C C88A G117U | -5.25 |
| G61C C102U G122A C124A | -3.47 |
| G61A G93A C104U | 0.015 |
| G61C U78C | -2 |
| G61C C101A | -2.74 |
| G61C C101G | -3.98 |
| G61C A66U A121G | -0.122 |
| G61C A100U | -2.98 |
| G61C U132A | -1.81 |
| G61C C104U | -1.51 |

| Variant | polymerase ribozyme fitness (log ratio) |
| --- | --- |
| G61C A84G U109G | -6.69 |
| G61C U133A | -1.7 |
| G61C C99U A111C | -5.26 |
| G61C C73U | -2.31 |
| G61A U81G A84G A91G A111G | -4.48 |
| G61A C76U C97U | -4.24 |
| G61C A105U | -3.67 |
| G61C A105C | -4.76 |
| G61C C82U G117A | -2.78 |
| G61A C98U C114A | -2.26 |
| G61A G77A | -1.19 |
| G61C U92A | -4.11 |
| G61C U78G A111U U131A | -5.71 |
| G61A C97G | -3.34 |
| G61C C114U G127U | -5.3 |
| G61A U78C C104A | -1.61 |
| G61C G120U | -1.08 |
| G61A C124U | 1.51 |
| G61A C99U G113C | -5.29 |
| G61C C72A C101A G120U C123A | -0.675 |
| G61C U81A | -3.2 |
| G61A U87A C124A | 1.93 |
| G61A U78A U126G | -2.02 |
| G61C C73G U134G G135C | -1.75 |

| Variant | polymerase ribozyme fitness (log ratio) |
| --- | --- |
| G61A C80U A105U | -3.51 |
| G61C A91G U112C G122A | -3.24 |
| G61A C85U G117A U129C | -2.75 |
| G61A G120A | 0.833 |
| G61A G93U A111G | 0.181 |
| G61A G122A | -0.219 |
| G61A G122U | 0.115 |
| G61A G135U | -0.801 |
| G61A C99U | -2.85 |
| G61C G77C C79U | -0.228 |
| G61C U78A U106A G120A | 0.446 |
| G61C C79G U92A G117U | -6.69 |
| G61C G113A | -2.26 |
| G61C G113C | -3.19 |
| G61C G122A U126C G135U | -4.38 |
| G61C A75U C97U | -0.192 |
| G61C U125A | -1.89 |
| G61A U81G U116G C124A | -2.39 |
| G61A C89G G93A | -2.18 |
| G61A G117A | -0.803 |
| G61A G117C | -2.99 |
| G61C A103C U130G | -6.98 |
| G61C G135U | -2.53 |
| G61A C80G U109A G113U U133G | -5.53 |

| Variant | polymerase ribozyme fitness (log ratio) |
| --- | --- |
| G61C C80A C101A G110A U112G C115U | -8.21 |
| G61A C82A | -0.883 |
| G61A C82U | 0.141 |
| G61A C82G | -1.29 |
| G61C C80U | -5.08 |
| G61C C80G | -4.64 |
| G61A G93C C97A C104A | -6.04 |
| G61A U81A C82A C98U | -1.55 |
| G61A G127U U134C | -0.718 |
| G61C C115G | -4.37 |
| G61C U112G | -2.38 |
| G61C U112C | 0.0988 |
| G61C C124A | -0.457 |
| G61C A75G U81G | -4.25 |
| G61C G122A G128U G135U | -3.92 |
| G61A U78G | -0.87 |
| G61A U78A | -0.223 |
| G61A G77C U96A | -1.55 |
| G61C C94U U112A | -1.52 |
| G61C U87A G110C | -5.84 |
| G61C C80A U109G | -6.27 |
| G61C G128C | -4.34 |
| G61A G71U A95U U106G G120U | -5.9 |
| G61C G127A | -2.71 |

| Variant | polymerase ribozyme fitness (log ratio) |
| --- | --- |
| G61A U81G | -3.89 |
| G61C A121C | -0.241 |
| G61A U78C C80U | -5.11 |
| G61C G93C | -3.2 |
| G61C A75U A84C A95C | -1.21 |
| G61A C82G A105C | -2.79 |
| G61A U78C C88G | -0.472 |
| G61U A74C C123G | -5.28 |
| G61C A66C | -2.87 |
| G61A U116G G128U | -3.71 |
| G61U A74U G127U | -4.02 |
| G61A U87C U126G | -1.59 |
| G61C C123U | -0.994 |
| G61A C94A | -0.27 |
| G61A C94U | -0.0774 |
| G61C A119G | -0.986 |
| G61C A119U | -1.89 |
| G61A U96G U130C | -0.371 |
| G61A U116G | -3.01 |
| G61A U116C | -0.278 |
| G61C G117U | -4.38 |
| G61C G117C | -3.51 |
| G61C G127A U129A | -2.95 |
